Data set [1] is described as follows: Distribution coefficient (LogD), n-octanol/water. The class given is physicochemical. The conditions noted are these: indium-111 labeled compound. As to the method: The tube was vortexed, centrifuged and fractions (100 µL) from each phase were collected and activity was measured using a gamma counter. The experiment was repeated twice for each compound.
The test system of another data set is PC3-pip xenografts. Kind of data set: in vivo. The conditions noted are these: mouse. Details: species or system BALB/c nu/nu mice. As to the method: (§1) The in vivo experiments were performed using BALB/c nu/nu mice bearing PC3-pip xenografts. The mice were implanted with 5 × 10^6 PC3-pip cells 12 days prior to the experiments. In vivo experiments were planned and performed in accordance with the national legislation on laboratory animals’ protection and were approved by the Ethics Committee for Animal Research in Uppsala, Sweden. PC3-pip tumor-bearing mice were injected with 40 pmol (30 kBq) of [^111In]In-BQ7812 per mouse. Groups were also co-injected with 7.5 nmol of non-labeled NOTA-PEG4-RM26 and/or 7.5 nmol of non-labeled PSMA-11 to block GRPR and/or PSMA. Mice were euthanized at 1, 3 and 24 h pi. Organs of interest were collected, weighed and the activity uptake in each organ was measured using a gamma counter.

The nature of the next data set: in vivo. More on the design: species or system BALB/c nu/nu mice. The conditions noted are these: BALB/c nu/nu, mouse, 40 pmol/animal, total radioactivity; for tissue uptake at 1 h: Activity uptake; for tissue to tissue ratio at 1 h / tissue to tissue ratio at 3 h / tissue to tissue ratio at 24 h: Tumor-to-organ ratio. As to the method: as §1

Numbered stars: 1 amine (or outer) side, 2 acyl side, 3 side chain; on linkers, the order of the positions; unused ones are H or OH. Square brackets hold non-standard residues; d marks the D form. Peptide text beside a SMILES is read from it. * marks the point of attachment. NOTA = O=C(O)CN1CCN(CC(=O)O)CCN(CC(=O)*)CC1; γGlu = O=C(O)[C@H](CCC(=O)[*:2])N[*:1]; Sta = CC(C)C[C@H](N)[C@@H](O)CC(=O)O; AEEA = NCCOCCOCC(=O)O; Aoc = NCCCCCCCC(=O)O; CO = O=C([*:1])[*:2]

This is an account of results in paper PMC7408065, “Heterodimeric Radiotracer Targeting PSMA and GRPR for Imaging of Prostate Cancer—Optimization of the Affinity towards PSMA by Linker Modification in Murine Model” (Pharmaceutics, 2020).

Regarding `CC(C)C[C@H](NC(=O)C[C@H](O)[C@H](CC(C)C)NC(=O)[C@H](Cc1c[nH]cn1)NC(=O)CNC(=O)[C@@H](NC(=O)[C@H](C)NC(=O)[C@H](Cc1c[nH]c2ccccc12)NC(=O)[C@H](CCC(N)=O)NC(=O)[C@@H](Cc1ccccc1)NC(=O)COCCOCCNC(=O)[C@H](CCCCNC(=O)CN1CCN(CC(=O)O)CCN(CC(=O)O)CC1)NC(=O)[C@H](Cc1ccccc1)NC(=O)CCCCCCCNC(=O)CC[C@H](NC(=O)N[C@@H](CCC(=O)O)C(=O)O)C(=O)O)C(C)C)C(N)=O` [BQ7812] ({Glu-CO-γGlu-Aoc}-FK(NOTA)[AEEA][dF]QWAVGH[Sta]L-NH2), the logD (commonly the decadic logarithm of the distribution of all forms, ionised or not, between an organic phase and buffer at a given pH) in data set [1] was -1.44.

Take `CC(C)C[C@H](NC(=O)C[C@H](O)[C@H](CC(C)C)NC(=O)[C@H](Cc1c[nH]cn1)NC(=O)CNC(=O)[C@@H](NC(=O)[C@H](C)NC(=O)[C@H](Cc1c[nH]c2ccccc12)NC(=O)[C@H](CCC(N)=O)NC(=O)[C@@H](Cc1ccccc1)NC(=O)COCCOCCNC(=O)[C@H](CCCCNC(=O)CN1CCN(CC(=O)O)CCN(CC(=O)O)CC1)NC(=O)[C@H](Cc1ccccc1)NC(=O)CCCCCCCNC(=O)CC[C@H](NC(=O)N[C@@H](CCC(=O)O)C(=O)O)C(=O)O)C(C)C)C(N)=O` [[^111In]In-BQ7812, metal not drawn] ({Glu-CO-γGlu-Aoc}-FK(NOTA)[AEEA][dF]QWAVGH[Sta]L-NH2): the “tumor-to-liver ratio” value in the data set with PC3-pip xenografts is given as “over five”. Moreover, the results for the tissue uptake at 1 h in the data set “in vivo” (Lung) and in “in vivo” (Pancreas) were 1.34 %ID/g and 5.83 %ID/g, respectively. For the same compound, the tissue to tissue ratio at 1 h was 11.7 ± 2.3 in “in vivo” (Blood); 24.5 ± 3.25 in the data set “in vivo” (Bone); 0.27 ± 0.07 in the data set “in vivo” (Kidney); 4.56 ± 0.77 in the data set “in vivo” (Liver); 12.3 ± 1.34 in “in vivo” (Lung); 41 ± 7.76 in the data set “in vivo” (Muscle). Moreover, the tissue to tissue ratio at 1 h worked out at 2.77 ± 0.43 in “in vivo” (Pancreas); 18.7 ± 2.6 in “in vivo” (Salivary glands); 9.31 ± 1.8 in “in vivo” (Small intestine); 11.5 ± 2.37 in the data set “in vivo” (Spleen); 12.5 ± 2.36 in “in vivo” (Stomach). In addition, the tissue to tissue ratio at 3 h in “in vivo” (Blood) was found to be 55.5 ± 15.6; in “in vivo” (Bone), 35.1 ± 25.7; in the data set “in vivo” (Kidney), 0.39 ± 0.09; in “in vivo” (Liver), 3.08 ± 1; in “in vivo” (Lung), 25.3 ± 10; in “in vivo” (Muscle) it was 53.3 ± 24.4. For the same compound, the tissue to tissue ratio at 3 h turned out to be 10.9 ± 3.05 in “in vivo” (Pancreas); 20.6 ± 7.98 in the data set “in vivo” (Salivary glands); 13.4 ± 3.68 in the data set “in vivo” (Small intestine); 20.8 ± 5.1 in “in vivo” (Spleen); 18.3 ± 2.8 in “in vivo” (Stomach). The tissue to tissue ratio at 24 h in “in vivo” (Blood) stood at 68.9 ± 10.4; in the data set “in vivo” (Bone), 10.9 ± 2.46; in the data set “in vivo” (Kidney), 0.18 ± 0.02; in “in vivo” (Liver), 1.04 ± 0.15; in the data set “in vivo” (Lung), 13.9 ± 1.65; in “in vivo” (Muscle) it was 23.6 ± 4.58. For the same compound, the tissue to tissue ratio at 24 h in “in vivo” (Pancreas) came out at 8.19 ± 1.92; in “in vivo” (Salivary glands) it was 7.39 ± 1.88; in “in vivo” (Small intestine) it was 5.52 ± 2.17; in “in vivo” (Spleen), 6.32 ± 1.59; in “in vivo” (Stomach) it was 10.5 ± 2.28.
